Measured values: patent US20210095041A1 (published 2021)
Each block holds one binder with its values, some of them ahead of it.

Columns and labels:
Clone #15 [1] = assay: MSD-SET; Fab
Clone #14 [2] = assay: MSD-SET; Fab
Clone #20 [3] = assay: MSD-SET; Fab
Clone #18 [4] = assay: MSD-SET; Fab
Clone #1 [5] = assay: MSD-SET; Fab
Clone #13 [6] = assay: MSD-SET; Fab
Clone #17 [7] = assay: MSD-SET; Fab
Clone #9 = assay: BLI (ForteBio Octet); IgG, monovalent
Clone #15 [8] = assay: BLI (ForteBio Octet); IgG, monovalent
Clone #7 = assay: BLI (ForteBio Octet); IgG, monovalent
Clone #8 = assay: BLI (ForteBio Octet); IgG, monovalent
Clone #14 [9] = assay: BLI (ForteBio Octet); IgG, monovalent
Clone #20 [10] = assay: BLI (ForteBio Octet); IgG, monovalent
Clone #4 = assay: BLI (ForteBio Octet); IgG, monovalent
Clone #18 [11] = assay: BLI (ForteBio Octet); IgG, monovalent
Clone #11 = assay: BLI (ForteBio Octet); IgG, monovalent
Clone #19 = assay: BLI (ForteBio Octet); IgG, monovalent
Clone #3 = assay: BLI (ForteBio Octet); IgG, monovalent
Clone #5 = assay: BLI (ForteBio Octet); IgG, monovalent
Clone #16 = assay: BLI (ForteBio Octet); IgG, monovalent
Clone #1 [12] = assay: BLI (ForteBio Octet); IgG, monovalent
Clone #10 = assay: BLI (ForteBio Octet); IgG, monovalent
Clone #6 = assay: BLI (ForteBio Octet); IgG, monovalent
Clone #12 = assay: BLI (ForteBio Octet); IgG, monovalent
Clone #13 [13] = assay: BLI (ForteBio Octet); IgG, monovalent
Clone #2 = assay: BLI (ForteBio Octet); IgG, monovalent
Clone #17 [14] = assay: BLI (ForteBio Octet); IgG, monovalent

Kd (Clone #15 [1]): 0.38 nM | Kd (Clone #14 [2]): 0.15 nM | Kd (Clone #20 [3]): 0.61 nM | Kd (Clone #18 [4]): 0.038 nM | Kd (Clone #1 [5]): 2.1 nM | Kd (Clone #13 [6]): 0.17 nM | Kd (Clone #17 [7]): 0.099 nM
B1: Biotinylated Human CD39-His (enzyme)
chain: TQNKALPENVKYGIVLDAGSSHTSLYIYKWPAEKENDTGVVHQVEECRVKGPGISKFVQKVNEIGIYLTDCMERAREVIPRSQHQETPVYLGATAGMRLLRMESEELADRVLDVVERSLSNYPFDFQGARIITGQEEGAYGWITINYLLGKFSQKTRWFSIVPYETNNQETFGALDLGGASTQVTFVPQNQTIESPDNALQFRLYGKDYNVYTHSFLCYGKDQALWQKLAKDIQVASNEILRDPCFHPGYKKVVNVSDLYKTPCTKRFEMTLPFQQFEIQGIGNYQQCHQSILELFNTSYCPYSQCAFNGIFLPPLQGDFGAFSAFYFVMKFLNLTSEKVSQEKVTEMMKKFCAQPWEEIKTSYAGVKEKYLSEYCFSGTYILSLLLQGYHFTADSWEHIHFIGKIQGSDAGWTLGYMLNLTNMIPAEQPLSTPLSHSTYV

Kd (Clone #9): 124 nM | Kd (Clone #15 [8]): 1.97 nM | Kd (Clone #7): 94.3 nM | Kd (Clone #8): 28.3 nM | Kd (Clone #14 [9]): 1.25 nM | Kd (Clone #20 [10]): 3.89 nM | Kd (Clone #4): 3.65 nM | Kd (Clone #18 [11]): 0.706 nM | Kd (Clone #11): 14.7 nM | Kd (Clone #19): 28.3 nM | Kd (Clone #3): 3.25 nM | Kd (Clone #5): 29.6 nM | Kd (Clone #16): 3.81 nM | Kd (Clone #1 [12]): 8.04 nM | Kd (Clone #10): 37.3 nM | Kd (Clone #6): 177 nM | Kd (Clone #12): 1.38 nM | Kd (Clone #13 [13]): 1.19 nM | Kd (Clone #2): 11.6 nM | Kd (Clone #17 [14]): 1.14 nM
B2: Human CD39-His (enzyme)
chain: TQNKALPENVKYGIVLDAGSSHTSLYIYKWPAEKENDTGVVHQVEECRVKGPGISKFVQKVNEIGIYLTDCMERAREVIPRSQHQETPVYLGATAGMRLLRMESEELADRVLDVVERSLSNYPFDFQGARIITGQEEGAYGWITINYLLGKFSQKTRWFSIVPYETNNQETFGALDLGGASTQVTFVPQNQTIESPDNALQFRLYGKDYNVYTHSFLCYGKDQALWQKLAKDIQVASNEILRDPCFHPGYKKVVNVSDLYKTPCTKRFEMTLPFQQFEIQGIGNYQQCHQSILELFNTSYCPYSQCAFNGIFLPPLQGDFGAFSAFYFVMKFLNLTSEKVSQEKVTEMMKKFCAQPWEEIKTSYAGVKEKYLSEYCFSGTYILSLLLQGYHFTADSWEHIHFIGKIQGSDAGWTLGYMLNLTNMIPAEQPLSTPLSHSTYV
